Legend:
[1] = molecular target: recombinant soluble mouse FcRn (mouse) (UniProt Q61559); experiment: inhibition of 125I-sFcRn binding to murine IgG1-Sepharose; molar ratio of inhibitor/FcRn given as 1/1000
[2] = molecular target: T1, FcRn of neonatal mouse intestine (mouse) (UniProt Q61559); experiment: cell-based or functional assay
T1 sequence (looked up): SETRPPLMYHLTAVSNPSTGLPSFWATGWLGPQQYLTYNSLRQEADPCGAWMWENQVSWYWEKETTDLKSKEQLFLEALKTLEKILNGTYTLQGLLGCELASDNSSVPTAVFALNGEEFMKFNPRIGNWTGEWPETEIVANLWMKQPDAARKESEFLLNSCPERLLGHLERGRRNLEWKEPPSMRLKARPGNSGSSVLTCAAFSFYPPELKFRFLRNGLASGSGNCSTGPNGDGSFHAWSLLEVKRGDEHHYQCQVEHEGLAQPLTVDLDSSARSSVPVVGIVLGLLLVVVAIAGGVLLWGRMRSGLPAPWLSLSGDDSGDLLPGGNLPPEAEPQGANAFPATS
T1 sequence (b2m, looked up): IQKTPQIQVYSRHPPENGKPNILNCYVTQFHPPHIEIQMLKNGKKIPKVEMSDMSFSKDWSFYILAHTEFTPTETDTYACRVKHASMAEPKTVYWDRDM

[3] = molecular target: recombinant soluble mouse FcRn (mouse) (UniProt Q61559); experiment: inhibition of 125I-sFcRn binding to murine IgG1-Sepharose; molar ratio of inhibitor/FcRn given as 1/500

B1: complete murine IgG1 molecule (antibody, part only; not given: variable domains and Fab arms, not shown: another chain or arm of the molecule)
Fc: VPRDCGCKPCICTVPEVSSVFIFPPKPKDVLTITLTPKVTCVVVDISKDDPEVQFSWFVDDVEVHTAQTQPREEQFNSTFRSVSELPIMHQDWLNGKEFKCRVNSAAFPAPIEKTISKTKGRPKAPQVYTIPPPKEQMAKDKVSLTCMITDFFPEDITVEWQWNGQPAENYKNTQPIMNTNGSYFVYSKLNVQKSNWEAGNTFTCSVLHEGLHNHHTEKSLSHSPGK
modifications: Glycosylated whole IgG1 from hybridoma or mammalian cells; used free, 125I-labelled or coupled to Sepharose. Two heavy chains are joined at the hinge.
For B1, the % inhibition [1] was 45.6%, the Inhibition of transmission (%) of radiolabeled mIgG1 across the intestine of neonatal mice [2] was 51.4% and the % inhibition [3] was 24.7%.
